The series is described as follows: label from the status in PepcDB records.
As for “MQPLLRTAGFSLLLLAASCGVGAQPEPQNSRLTAIKMDGELPARAAIAGLFAELDFQQATQSYLWALPLVSYAQWQGEFRDKLHAGNGDLMVLESYEDKLGVITANATTPYILGFVDLNQTGPMVVELPPGPTAGGVGDFWQRAITDMGQTGPDQGKGGKYLVLPPGHPEPSDADQYYLAKSQTMNVLVGFRVLDPDPAKGKALVQQFKMYPYAQRATPPATRLLSPGGKPWSGTQPRGMAYWERLHQIIQQEPVNERDRFYMAMLASLGIEKDKPFNPNEHQRQALEQGARMGELIAQANTFAKRFADAQYWPDRQWDKVLNIADPSQRVAYYDQLWERSAWFYEAVTNTKGMVSKTPGLGQTYLGAYTDHNGQWLDGGKHYRLHLGSNPPARQFWSLTVYDSASRCLIDNPQRKADLSSRQDLKKNPDGSLDLYFGPSAPKGLESNWVQTLPGKHWFSYFRLYAPTEAYFDKRWKLDDITLVQ”, the protein production entry is on record as “failed”.
For “MQPRLVIAGTHSGVGKTTVTLGLMAAFVEKGNIVQGFKCGPDYIDPSYHRAVTKRASRNLDSWMVSEDVVNDIFIEGCNGADLSIIEGVMGFYDGKASTSDKGSTADISLLLQAPVLLVVDISGMARSAAAVVKGFQQLNEKVKIAGVILNGAGSERHAEMCSEAIKEACGIPALGYLKKGDVPSIPERHLGLVPALERGEHDSLFSQLAAVVSRQFDLERIERLALEASALSRRTNLFQQTKRPSVVKIAVAYDAAFHFYYEENFTLLRQAGAELVYFSPLRGEDLPSHCDGLYLGGGFPEEFADELSQWIKDHPQLKKRVQSGLPTLAECGGYMFLGEQLTTTKGKTVEMAGVIPMVVQMENKLVSLGYRDVTPLDDSFLLSKGQQIRGHEFHYSKAVYTETERPAYFVKGLFGEGKEGYMSDHLLAGYTHLHFASEPAVATQWVKACEVYKNRRLHRGQVSQLEHHHHHH”, the protein production entry is on record as “not failed”.
Take “MQQHSSKTAYVYSDKLLQYRFHDQHPFNQMRLKLTTELLLNANLLSPEQIVQPRIATGDELMLIHKYDYVEAIKHASHGIISEDEAKKYGLNDEENGQFKHMHRHSATIVGGALTLADLIMSGKVLNGCHLGGGLHHAQPGRASGFCIYNDIAITAQYIAKEYNQRVLIIDTDAHHGDGTQWSFYADNHVTTYSIHETGKFLFPGSGHYTERGEDIGYGHTVNVPLEPYTEDASFLECFKLTVEPVVKSFKPDIILSVNGVDIHYRDPLTHLNCTLHSLYEIPYFVKYLADSYTNGKVIMFGGGGYNIWRVVPRAWSHVFLSLIDQPIQSGYLPLEWINKWKHYSSELLPKRWEDRLNDYTYVPRTKEISEKNKKLALHIASWYESTRQLEHHHHHH”: the protein production result is recorded as “failed”.
As to “MQQTVTYGAKWKQFLTIFTPIVITQLTLFSMTFFDTTMSGNYSNQALAGVAIGSSFWAPVNAAFSGLLMAITPIIAQLIGAKKEKQVKNTVHNGLYIALFLAFILILINFLVVPTILTHMPVTAEVAHIARHFLNGICIGIPAFFISAILRSFIDSLGLTRVTMLITLCTVPFNIFLNYCFIFGNFGFPEMGGAGSGYATGITYWLVVLVSVILIQTQTRLRKFGIFKGLTALRFSKVKEIIGIGVPNGLTILFETSIFSAVTILMGAFGTETIAAHQSANSVCTLLYAFPLSVASTLTILGGYETGAKRLKDAKQYRHIGMTAAILIGCINGAILFFFRDIIAGFYTNDAELSDLIMHFLVYAILFQFADAVLSPVLGALRGYKDVAITSIIAFISYWLIGLPVGYGLSFTNLGPFGYWIGLSTGLFVAAFILSIRVRKTERKLSLNAKNAEISS”, the protein production result is “not failed”.
As to “MQQVGFGTWNWVAVIVYLVLMLLVGAYFTKRASQNTDSFFTASGRLPSWAVGFSIYATTLSAITFMSTPEKAFLTDWSYIAGNIAIVAIIPLLIYFYVPFFKKLKVTSAYEYLEARFRPSVRVIGSLLFVLFHLGRVAIVIYLPTLAITAVSDLNPYVVASLVGILCILYTFLGGFEGVVWSDFIQGIILLGGAAAIIILGIIHIKGGMGTVVTDALDHKKLISADNWKFNTAAAAIPIIFLGNIFNNLHQYTASQDVVQRYQASESMSETKKSLWMNGVLALISAPLFYGMGTMLYSFYTHESALPEGFNTSSIVPYLILTEMPPFIAGLLIATIFAAAQSTISSSLNSISACLSVDIKHRIFGKGKEKDEVTFARWMIILSGLFGFGMSIYLIASDSNDLWDLFLLITGLVGVPLAGVFAVGIFTKRTNTLGVICGLALGIIFAYIFNGIGGGNSPFFVSIISFLVAFIFSYLIRIVIPDKKKDIVGLTIFDIKEKSNYVSKIHVKK”, the protein production result is reported as “failed”.
Take “MQRFLSIALALCVGLTLSLDASAKRFGGGKSSGSAPIHQTRQATPTTPAAAPTVPGRAPAAASGASRWLGPLAGLAAGGLLASMFMGDGFEGFQIMDFLIVALIAFLVFRFIAARRRQQQPQMAMPGHAPMQREAHAQPAQPSIFGGSAAPAATAAPVINAPAWFNEQSFLAAARNHFQSLQQHWDANEMDKISEFVTPQMLEFLKRERAELGDGFQSTYIDNLEVQLDGVDDRADRTDATLTFRGVSKNSRFDQGEVFSESWHMVRAQGENQPWLVAGIRQNS”: the protein production entry was “failed”.
As to “MQRISVIVPMYNEARHITRTLDSVLRAARAATLDCELIVVDNGSTDQGPQRARELGARVLLCPGIGIGALRNRGAAVATGDSLAFLDADIEVPGNWLQLWQQAHAEQRAEVFALDCAAPASAPWFARAWQRRSLAGDPQPRLLPWMPTPNLCLQRAWFERVGGFNEQLRTGEDKDFGLRLHAAGARQLSLPQPQVLHWGYEASWAEWAGKERWRQGSHVQLLKGSGLSLRLLRFPLLCLACALLSLVALLCLLAGLPGAAGLCLLLGALAPLALAVRQGLRQRDPLFVLQLWLLHWVRLHLGALALVQALFNRSAERPDRG”, the protein production result is on record as “failed”.
Regarding “MQRLLLANDLPGVGKVALATSIPIAAACQVETMLLPTVLLSSHTGGFPDVVIEDMTDLNQAYFEQWKNLNLELAGILSGYCRNPQQLSQLAMYAKHTETPLIVDPIMGDSGRLYTGFTSSYVEAMKELTQSAQLILPNITEASLLTGRNYLGDSYDIHDIEDLLEALAEQVSADIVLTGISFDDSQIGVAYFQQETGEITTYMSKKYPANFFGTGDILSTLLAVATIQQINLHQAIPLALDFIDKSLERTLALDRDLKFGISFEPFLAELQQAFQILKEKL”, the protein production result is listed as “failed”.
“MQRVEEVFARREPELAPMAEPAPQPQVRQEPLPEVDQAYIHNYVETSGQQDIRADFRDDAGAVAEVFDVHSRQPRAAEPVVYQQAAPQVAPQLAWEEPQAIEPSQPEWHAMPELPADVSSNISSDAHAYAPEPQAFDLADEVEIAVAEAAPAPVSVRPPAHGGRSSLEFSSLRLPLANFGARRDVSAVDPRRVEPRSELYPAASRIEPQVEPAPAVVQAEETAPSFAQPVAEVFTPAAEPLAPAIAERPAAKNLSPMDELIYGVAQYSIPERGEAQPVKTEPVAQAAKVEPPAVAAAPAKAAPVAAAVPASPIEEPDFTDFTGFNDDDFELALDDLDLDLDLSEIAEAEVAPAPQPVRPQPATPIAAVAPQPVRHEPAPQPRPAPVVAAAPIAAAPVVAAPVQPRPVAAQPAVPQTLESLPFDPSQIGETEEHPETIIEMDVPELPVGVFEPKPAARRHEEDLDIDTELATLFAPAVAGGLDRHKHAENRGAAQARPAPAPEEADEFERALEEDFRRSMQEAAASRGNAPRDAETYVDHQAAYRDEDERGGRRWIMPVAAAIGLVLIGGGVYALISGGSSGTGSNGAPVIISADNDPMKVVPENPGGRVVPNQDKAVYDRVAGGAAADPKQPALISSNEKPVDVVQRTLIPEQLPLEGENDADMEAAGTPVGETEDPRLLSPEEKAAHNEGAGATGVSPRKVRTMIVKPDGTLVAQEVDAPAAQPPKADKVAELAAPQTAKPGEGAPAVIAASRVPVAPEQAQPQASTPAAAKPSTQSAAPLPAARPSSQPANVVATVTNQGNVRPATTAPAQAAQQQTAAATPAATSTPSAGGYYIQIASLPSQAEAQKSYQNMSAKFGSVIGGRGVDIKAAEIAGKGTFYRVRIPAGDKNEAVALCEKFRSAGGSCLVAR”: the protein production result is “failed”.
Turning to “MQRVLGFSTCSYSWIAQSFNRFHPRCIQPTCFRSKVTKLCPKRPRSSLLSDNNATKYPQKAIYLTAQVKLPQISEVQNATFDQCLPLARNICFRLQEEPQDENAYQVLKELLSREEGARAFFVEYLSDYELSLPDKKPPFKLEKLLKDCDEYVPNLLARNLAMSVAKEVDLANDSKNAENEEVDDTGSGSWSDSVEESSGGPTMVKERTALLIDSIASSEIARELVALWFSIRSRKGKYVHFLERQKFRKDQLDVIQRTLEVFIGA”, the protein production entry was “failed”.
“MQSKRGRPRNIETQKAILSASYELLLESGFKAVTVDKIAERAKVSKATIYKWWPNKAAVVMDGFLSAAAARLPVPDTGSALNDILIHATSLANFLISREGTIINELVGEGQFDSKLAEEYRVRYFQPRRLQAKQLLEKGIKRGELKENLDIELSIDLIYGPIFYRLLVTGEKLDDSYVHDLVINAFEGIRLR”: the protein production entry was “not failed”.
As to “MQSPPHDPASALAIRNHYRQSQSRAARLRLLVDTGQELIQLPPEAMRKCVLQRACAFVAMDHGLLLEWGADNGVQTTARHGSKERLSTLETTADPLAIGPQWLERPGTHLPCVLLLPLRGADEGSFGTLVLANSVAISAPDGEDIESLQLLATLLAAHLENNRLLEALVARDRT”, the protein production entry was “not failed”.
In the case of “MQSTIRKQLLQVFSEADGEFVSGQTISDKLGCSRTAVWKHMEDLRNEGYELEAVRRLGYRIASKPDKVTANEIQLGLQTKHIGRTVYFEESVESTQHIAAKLAYEGAEEGTIVVAEEQTAGRGRLSRKWHSPKGTGIWMSIILRPSIPVHHAPQLTLLAAVSVAQAIEKCTGVNVGIKWPNDILIQGKKAVGILTEMQADPDKINAVIMGIGINANQKQEHFDEEIQHIATSLAIESGKPIVRAELMQQIFLQLEKLYEEYLQNGFSVIKILWESYAVSIGKEINARTMRETITGVAKGITEDGVLLLEDHEGKVHHIHSADIEIK”, the protein production result is “failed”.
For “MQTIIYQIAPNDWVTDEVLMASTGLKPGTILRARKKAWFVGREYKHMTLDGKPKANGECLYHLPTINRWIRNMPDPDVDLLEHHHHHH”, the protein production entry is recorded as “not failed”.
With “MQTINATEIRNNFSYYIDTVVRDKPIAVKRNRDVLLFFSEQIIKDLLQDLKIHAELSKEDGIIIGTIDGFDLVVSGESEQEVIQKLAEDLLEYAQDYMNDFKLFYNAPNRKTHYPYILKVLLSSNIDEVKGYIYAEMV”, the protein production result is “not failed”.
With “MQTLIIVAHPELARSNTQPFFKAAIENFSNVTWHPLVADFNVEQEQSLLLQNDRIILEFPLYWYSAPALLKQWMDTVMTTKFATGHQYALEGKELGIVVSTGDNGNAFQAGAAEKFTISELMRPFEAFANKTKMMYLPILAVHQFLYLEPDAQQRLLVAYQQYATNVGAGHFKDLEHHHHHH”, the protein production result is “not failed”.
Take “MQTVGSFSEFLDDMVGRYGPRPAIQYRPRYRTLRWSYLELGTHAAKLASLLDEHGVGSGDRVFLSAENSPHWVAAFFAIAARGAVIVPLNPRSPPEQLANLVRSAGPSLVLASPRRRWEGPPLPVVDIERSGRVPSNRPATRTGPARLAEIIYTSGTTGDPKGVMLTHANLLSDLSAVARAIPLAPDDHVLSLVPLFHVYGQMTSLFCPLAAGCPVSYLTTPTTRSVLEALTHTPVTHLVAVPEVLKTMMDRLESRIGRIPGFLWPLLRGRIRARISGSLRTIVCGGAPLDPVVEEKWWALGFQVLQGYGLTETSPVIAANTPQAHRIGSVGKPLDEVELRIASDGEILVKGPMVMAGYFRDPARTEAAFADGWLKTGDAGRLDADGFLYVYGRKRYMILGPGGENVFPEDIEAVLNRTAGVTDCAVVGLESGGRTLVHAVLLADADEARAAAIVAEANRHLAPHQRIVSWSLWPEPDFPRSVTRKVKKDEVLGRLRREPSTQAVPVGRSTPLRLLLAQVAGTEAGALSDDTRLVPDLGLDSLLRIELVARIEEDLGVCLDEIDIGPLTTVADLENLLVRRQDRMPRVDAHPRWSLSPWASRLRPLAQKVFLQWWIAPFCRLRVSGLEHLAALDGPVIFMANHRSYLDSAVASFALPDRFRYRLAIAAATGVLYTRYRWAVPIGELSLNAFPLPSGPDENIRPGLELIGRLLDDGWNVLIFPEGQMNRGGLGIQPLRRGAGTIGVDMGVPVVPLVIEGTEKVMPPGRIVPRAAAPVSVRFGAPLRAGEAEPHGRMLARIEDALRRLLENSPLEHHHHHH”: the protein production entry is reported as “failed”.

(Values after a protein production outcome set (Wang et al. 2014).)
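Note: failed if final PepcDB status was selected cloned or expressed and not failed if soluble or beyond.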
